Like-named read-outs stand apart in the source and are kept apart here.

Holding throughout (test): SEC
On the technique in general: In gel filtration, larger molecules generally elute earlier.

Data set [1] concerns the molecule itself.
Data set [2] deals with the molecule itself. This is another data set of the same source.
Data set [3] concerns the molecule itself. This is another data set of the same source.

B1: G80A/H81A (K3A2H) horse myoglobin (natural protein)
chain: GLSDGEWQQVLNVWGKVEADIAGHGQEVLIRLFTGHPETLEKFDKFKHLKTEAEMKASEDLKKHGTVVLTALGGILKKKAAHEAELKPLAQSHATKHKIPIKYLEFISDAIIHVLHSKHPGDFGADAQGAMTKALELFRNDIAAKYKELGFQG
As for B1, the “dimer-to-monomer ratio after heating” value in the data set “SEC [1]” was 92%. In “SEC [2]”, this protein returned a Ka of 920000 M⁻¹ and a dH of -30.8 ± 1.1 kcal/mol.

B2: G80A/H81A/L137D (K3A2H-L137D) horse myoglobin (natural protein)
chain: GLSDGEWQQVLNVWGKVEADIAGHGQEVLIRLFTGHPETLEKFDKFKHLKTEAEMKASEDLKKHGTVVLTALGGILKKKAAHEAELKPLAQSHATKHKIPIKYLEFISDAIIHVLHSKHPGDFGADAQGAMTKALEDFRNDIAAKYKELGFQG
Regarding B2, the “dimer-to-monomer ratio after heating” value in the data set “SEC [1]” was 98%. In “SEC [3]”, this protein returned a Ka of 2.3e+07 M⁻¹ and a dH of -100 ± 4 kcal/mol.

B3: G80A/H81A/L137E (K3A2H-L137E) horse myoglobin (natural protein)
chain: GLSDGEWQQVLNVWGKVEADIAGHGQEVLIRLFTGHPETLEKFDKFKHLKTEAEMKASEDLKKHGTVVLTALGGILKKKAAHEAELKPLAQSHATKHKIPIKYLEFISDAIIHVLHSKHPGDFGADAQGAMTKALEEFRNDIAAKYKELGFQG
In the case of B3, in “SEC [1]”, the “dimer-to-monomer ratio after heating” value came to 97%. Moreover, in “SEC [3]”, the Ka stood at 9.4e+06 M⁻¹ and the dH is -63.2 ± 5.1 kcal/mol.

(Values after article PMC9043842 (RSC Advances, 2021).)
